Data published in patent publication US20040048305.

What was measured:
[1] = molecular target: T1, peptide 3: Biotin-KKRFSFKKSFKLSGFSFK-COOH
T1 chain: KKRFSFKKSFKLSGFSFK

[2] = molecular target: T2, bovine myelin basic protein (biotinylated MBP, Amersham Biosciences), P02687
T2 chain: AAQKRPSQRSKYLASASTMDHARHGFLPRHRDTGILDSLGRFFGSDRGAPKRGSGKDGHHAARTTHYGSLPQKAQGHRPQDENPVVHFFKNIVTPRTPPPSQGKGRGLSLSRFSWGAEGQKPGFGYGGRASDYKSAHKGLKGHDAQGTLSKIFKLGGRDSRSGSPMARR

B1: GST-14171 fusion protein (glutathione S-transferase fused to the N-terminus of a partial 14171 molecule, amino acid residues 1-350 of SEQ ID NO:2) (protein)
chain: MEGDGGTPWALALLRTFDAGEFTGWEKVGSGGFGQVYKVRHVHWKTWLAIKCSPSLHVDDRERMELLEEAKKMEMAKFRYILPVYGICREPVGLVMEYMETGSLEKLLASEPLPWDLRFRIIHETAVGMNFLHCMAPPLLHLDLKPANILLDAHYHVKISDFGLAKCNGLSHSHDLSMDGLFGTIAYLPPERIREKSRLFDTKHDVYSFAIVIWGVLTQKKPFADEKNILHIMVKVVKGHRPELPPVCRARPRACSHLIRLMQRCWQGDPRVRPTFQEITSETEDLCEKPDDEVKETAHDLDVKSPPEPRSEVVPARLKRASAPTFDNDYSLSELLSQLDSGVSQAVEGP
Question: B1 was tested. Which “counts per minute at the two hour timepoint, 10 nM enzyme, 0.5 uM substrate” value [1] did it give?
Answer: about 11,000 cpm

Question: What about the “signal-to-noise ratio at the two hour timepoint, 10 nM enzyme” value [1] of the same protein?
Answer: a signal-to-noise ratio of 9

Question: And the “substrate phosphorylation, [gamma-33P]ATP, streptavidin SPA beads” value [1]?
Answer: weak phosphorylation of the following peptide, named peptide 3

Question: What about the “counts per minute at the two hour timepoint, 10 nM enzyme, 0.5 uM substrate” value [2] of the same protein?
Answer: about 21,000 cpm

Question: And the “phosphorylation of biotinylated MBP by soluble GST-14171 fusion protein” value [2]?
Answer: phosphorylated MBP

Question: What about the “signal-to-noise ratio at the two hour timepoint, 10 nM enzyme” value [2] of the same protein?
Answer: a signal-to-noise ratio of 13

Question: What about the “substrate phosphorylation, [gamma-33P]ATP, streptavidin SPA beads” value [2] of the same protein?
Answer: strong phosphorylation of bovine myelin basic protein
